5 molecules from patent US20140087995A1 (published 2014) can be followed below.

Numbered stars: 1 amine (or outer) side, 2 acyl side, 3 side chain; on linkers, the order of the positions; unused ones are H or OH. Bridge positions count the residues as written; N and C are the ends. Side chains are listed from the residue outwards. Ends that are not written are not given here. * marks the point of attachment. C20 diacid = O=C(O)CCCCCCCCCCCCCCCCCCC(=O)*; γGlu = O=C(O)[C@H](CCC(=O)[*:2])N[*:1]

Assay [1] concerns the target T1, human calcitonin receptor (human, UniProt P30988 25-474).
T1 sequence (looked up): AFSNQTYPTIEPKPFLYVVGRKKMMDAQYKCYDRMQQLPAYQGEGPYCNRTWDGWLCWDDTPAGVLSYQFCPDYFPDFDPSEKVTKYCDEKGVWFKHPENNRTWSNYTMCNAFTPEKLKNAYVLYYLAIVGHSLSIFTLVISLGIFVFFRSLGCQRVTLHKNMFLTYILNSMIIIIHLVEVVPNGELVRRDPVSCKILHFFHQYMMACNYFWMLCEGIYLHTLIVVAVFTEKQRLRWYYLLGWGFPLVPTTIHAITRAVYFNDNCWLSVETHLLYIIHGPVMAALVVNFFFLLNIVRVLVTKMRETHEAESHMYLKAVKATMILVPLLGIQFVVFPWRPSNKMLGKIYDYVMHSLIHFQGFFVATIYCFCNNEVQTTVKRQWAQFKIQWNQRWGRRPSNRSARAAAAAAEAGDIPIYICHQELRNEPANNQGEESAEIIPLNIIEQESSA
The experiment in a line: cell-based or functional assay.

The target in assay [2] is T2, human amylin 3(a) receptor (human calcitonin receptor plus RAMP-3) (human, UniProt P30988 25-474; O60896 24-148, limits assumed).
T2 sequence (looked up) 1: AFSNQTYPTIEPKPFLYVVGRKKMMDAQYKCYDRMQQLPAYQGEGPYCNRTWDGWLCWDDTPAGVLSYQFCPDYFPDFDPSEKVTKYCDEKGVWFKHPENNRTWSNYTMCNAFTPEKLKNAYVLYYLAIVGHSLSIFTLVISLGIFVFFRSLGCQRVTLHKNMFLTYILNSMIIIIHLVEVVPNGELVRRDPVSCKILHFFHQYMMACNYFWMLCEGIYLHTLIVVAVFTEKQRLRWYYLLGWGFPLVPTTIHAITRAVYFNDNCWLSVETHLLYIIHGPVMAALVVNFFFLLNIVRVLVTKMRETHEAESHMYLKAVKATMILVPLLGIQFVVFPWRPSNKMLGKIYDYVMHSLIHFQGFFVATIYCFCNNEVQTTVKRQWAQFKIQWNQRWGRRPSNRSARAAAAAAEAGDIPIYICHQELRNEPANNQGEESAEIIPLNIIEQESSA
T2 sequence (looked up) 2: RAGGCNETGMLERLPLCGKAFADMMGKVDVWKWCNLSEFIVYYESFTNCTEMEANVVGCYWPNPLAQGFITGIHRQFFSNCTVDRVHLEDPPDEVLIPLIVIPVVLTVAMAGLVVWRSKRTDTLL
As to the kind of experiment: cell-based or functional assay.

For assay [3], the target named is T2, human amylin 3(a) receptor (human …). As to the kind of experiment: SPA competition binding, displacement of 125I-rat amylin from membranes of Amylin 3(a)/CRE-luc BHK cells (Assay V). A digest of the protocol: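 SPA beads with BHK Amylin 3(a)/CRE-luc cell membranes (35 ng/μL final) in 50 mM Hepes pH 7.4, 1 mM CaCl2, 5 mM MgCl₂, 0.1% OA, 0.02% Tween20.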

B1: N^ε1-[(4S)-4-carboxy-4-[[(4S)-4-carboxy-4-(19-carboxynonadecanoylamino)butanoyl]amino]butanoyl]-[Glu14,Arg17,Pro21,Pro27,Arg34,Glu35]-h-amylin (peptide)
peptide: K([γGlu-γGlu-C20 diacid])CNTATCATQRLAEFLRHSSPNFGAIPSSTNVGRETY-NH2
modifications: disulfide 2-7; N-terminus assumed
SMILES: CC[C@H](C)[C@H](NC(=O)[C@H](C)NC(=O)CNC(=O)[C@H](Cc1ccccc1)NC(=O)[C@H](CC(N)=O)NC(=O)[C@@H]1CCCN1C(=O)[C@H](CO)NC(=O)[C@H](CO)NC(=O)[C@H](Cc1c[nH]cn1)NC(=O)[C@H](CCCNC(=N)N)NC(=O)[C@H](CC(C)C)NC(=O)[C@H](Cc1ccccc1)NC(=O)[C@H](CCC(=O)O)NC(=O)[C@H](C)NC(=O)[C@H](CC(C)C)NC(=O)[C@H](CCCNC(=N)N)NC(=O)[C@H](CCC(N)=O)NC(=O)[C@@H](NC(=O)[C@H](C)NC(=O)[C@@H]1CSSC[C@H](NC(=O)[C@@H](N)CCCCNC(=O)CC[C@H](NC(=O)CC[C@H](NC(=O)CCCCCCCCCCCCCCCCCCC(=O)O)C(=O)O)C(=O)O)C(=O)N[C@@H](CC(N)=O)C(=O)N[C@@H]([C@@H](C)O)C(=O)N[C@@H](C)C(=O)N[C@@H]([C@@H](C)O)C(=O)N1)[C@@H](C)O)C(=O)N1CCC[C@H]1C(=O)N[C@@H](CO)C(=O)N[C@@H](CO)C(=O)N[C@H](C(=O)N[C@@H](CC(N)=O)C(=O)N[C@H](C(=O)NCC(=O)N[C@@H](CCCNC(=N)N)C(=O)N[C@@H](CCC(=O)O)C(=O)N[C@H](C(=O)N[C@@H](Cc1ccc(O)cc1)C(N)=O)[C@@H](C)O)C(C)C)[C@@H](C)O
B1: in assay [1], the “hCTR funct. EC50” value came out at 7.43 nM. In assay [2], the “hAmylin-R funct. EC50” value was 0.703 nM. For the same molecule, in assay [3], the half-maximal inhibitory concentration (IC50) worked out at 0.957 nM.

B2: N^ε1-[(4S)-4-carboxy-4-[[(4S)-4-carboxy-4-(19-carboxynonadecanoylamino)butanoyl]amino]butanoyl]-[Glu14,Arg17,Pro21,Pro27,Arg35]-h-amylin (peptide)
peptide: K([γGlu-γGlu-C20 diacid])CNTATCATQRLAEFLRHSSPNFGAIPSSTNVGSRTY-NH2
modifications: disulfide 2-7; N-terminus assumed
SMILES: CC[C@H](C)[C@H](NC(=O)[C@H](C)NC(=O)CNC(=O)[C@H](Cc1ccccc1)NC(=O)[C@H](CC(N)=O)NC(=O)[C@@H]1CCCN1C(=O)[C@H](CO)NC(=O)[C@H](CO)NC(=O)[C@H](Cc1c[nH]cn1)NC(=O)[C@H](CCCNC(=N)N)NC(=O)[C@H](CC(C)C)NC(=O)[C@H](Cc1ccccc1)NC(=O)[C@H](CCC(=O)O)NC(=O)[C@H](C)NC(=O)[C@H](CC(C)C)NC(=O)[C@H](CCCNC(=N)N)NC(=O)[C@H](CCC(N)=O)NC(=O)[C@@H](NC(=O)[C@H](C)NC(=O)[C@@H]1CSSC[C@H](NC(=O)[C@@H](N)CCCCNC(=O)CC[C@H](NC(=O)CC[C@H](NC(=O)CCCCCCCCCCCCCCCCCCC(=O)O)C(=O)O)C(=O)O)C(=O)N[C@@H](CC(N)=O)C(=O)N[C@@H]([C@@H](C)O)C(=O)N[C@@H](C)C(=O)N[C@@H]([C@@H](C)O)C(=O)N1)[C@@H](C)O)C(=O)N1CCC[C@H]1C(=O)N[C@@H](CO)C(=O)N[C@@H](CO)C(=O)N[C@H](C(=O)N[C@@H](CC(N)=O)C(=O)N[C@H](C(=O)NCC(=O)N[C@@H](CO)C(=O)N[C@@H](CCCNC(=N)N)C(=O)N[C@H](C(=O)N[C@@H](Cc1ccc(O)cc1)C(N)=O)[C@@H](C)O)C(C)C)[C@@H](C)O
notes: also called compound 89
Take B2: the “hCTR funct. EC50” value in assay [1] came to 11.2 nM. In assay [2], the “Ratio hCT/hAmylin funct.” value was 27.8 and the “hAmylin-R funct. EC50” value amounted to 0.404 nM. Moreover, the concentration for half-maximal inhibition (IC50) in assay [3] amounted to 1.16 nM.

B3: N^ε1-[(4S)-4-carboxy-4-[[(4S)-4-carboxy-4-(19-carboxynonadecanoylamino)butanoyl]amino]butanoyl]-[Glu14,Arg17,Pro21,Pro27,His34]-h-amylin (peptide)
peptide: K([γGlu-γGlu-C20 diacid])CNTATCATQRLAEFLRHSSPNFGAIPSSTNVGHNTY-NH2
modifications: disulfide 2-7; N-terminus assumed
SMILES: CC[C@H](C)[C@H](NC(=O)[C@H](C)NC(=O)CNC(=O)[C@H](Cc1ccccc1)NC(=O)[C@H](CC(N)=O)NC(=O)[C@@H]1CCCN1C(=O)[C@H](CO)NC(=O)[C@H](CO)NC(=O)[C@H](Cc1c[nH]cn1)NC(=O)[C@H](CCCNC(=N)N)NC(=O)[C@H](CC(C)C)NC(=O)[C@H](Cc1ccccc1)NC(=O)[C@H](CCC(=O)O)NC(=O)[C@H](C)NC(=O)[C@H](CC(C)C)NC(=O)[C@H](CCCNC(=N)N)NC(=O)[C@H](CCC(N)=O)NC(=O)[C@@H](NC(=O)[C@H](C)NC(=O)[C@@H]1CSSC[C@H](NC(=O)[C@@H](N)CCCCNC(=O)CC[C@H](NC(=O)CC[C@H](NC(=O)CCCCCCCCCCCCCCCCCCC(=O)O)C(=O)O)C(=O)O)C(=O)N[C@@H](CC(N)=O)C(=O)N[C@@H]([C@@H](C)O)C(=O)N[C@@H](C)C(=O)N[C@@H]([C@@H](C)O)C(=O)N1)[C@@H](C)O)C(=O)N1CCC[C@H]1C(=O)N[C@@H](CO)C(=O)N[C@@H](CO)C(=O)N[C@H](C(=O)N[C@@H](CC(N)=O)C(=O)N[C@H](C(=O)NCC(=O)N[C@@H](Cc1c[nH]cn1)C(=O)N[C@@H](CC(N)=O)C(=O)N[C@H](C(=O)N[C@@H](Cc1ccc(O)cc1)C(N)=O)[C@@H](C)O)C(C)C)[C@@H](C)O
notes: also called compound 87
As to B3, the “hCTR funct. EC50” value in assay [1] turned out to be 1.09 nM. Moreover, in assay [2], the “Ratio hCT/hAmylin funct.” value was 3.8 and the “hAmylin-R funct. EC50” value was determined as 0.285 nM. For the same molecule, in assay [3], the half-inhibitory concentration (IC50) was 0.633 nM.

B4: N^ε1-[(4S)-4-carboxy-4-[[(4S)-4-carboxy-4-(19-carboxynonadecanoylamino)butanoyl]amino]butanoyl]-[Glu14,Arg17,Pro21,Pro27,His34,Glu35]-h-amylin (peptide)
peptide: K([γGlu-γGlu-C20 diacid])CNTATCATQRLAEFLRHSSPNFGAIPSSTNVGHETY-NH2
modifications: disulfide 2-7; N-terminus assumed
SMILES: CC[C@H](C)[C@H](NC(=O)[C@H](C)NC(=O)CNC(=O)[C@H](Cc1ccccc1)NC(=O)[C@H](CC(N)=O)NC(=O)[C@@H]1CCCN1C(=O)[C@H](CO)NC(=O)[C@H](CO)NC(=O)[C@H](Cc1c[nH]cn1)NC(=O)[C@H](CCCNC(=N)N)NC(=O)[C@H](CC(C)C)NC(=O)[C@H](Cc1ccccc1)NC(=O)[C@H](CCC(=O)O)NC(=O)[C@H](C)NC(=O)[C@H](CC(C)C)NC(=O)[C@H](CCCNC(=N)N)NC(=O)[C@H](CCC(N)=O)NC(=O)[C@@H](NC(=O)[C@H](C)NC(=O)[C@@H]1CSSC[C@H](NC(=O)[C@@H](N)CCCCNC(=O)CC[C@H](NC(=O)CC[C@H](NC(=O)CCCCCCCCCCCCCCCCCCC(=O)O)C(=O)O)C(=O)O)C(=O)N[C@@H](CC(N)=O)C(=O)N[C@@H]([C@@H](C)O)C(=O)N[C@@H](C)C(=O)N[C@@H]([C@@H](C)O)C(=O)N1)[C@@H](C)O)C(=O)N1CCC[C@H]1C(=O)N[C@@H](CO)C(=O)N[C@@H](CO)C(=O)N[C@H](C(=O)N[C@@H](CC(N)=O)C(=O)N[C@H](C(=O)NCC(=O)N[C@@H](Cc1c[nH]cn1)C(=O)N[C@@H](CCC(=O)O)C(=O)N[C@H](C(=O)N[C@@H](Cc1ccc(O)cc1)C(N)=O)[C@@H](C)O)C(C)C)[C@@H](C)O
Take B4: the “hCTR funct. EC50” value in assay [1] was found to be 7.05 nM. For the same molecule, the “hAmylin-R funct. EC50” value in assay [2] worked out at 0.445 nM. In assay [3], the IC50 came to 0.525 nM.

B5: N^ε1-[(4S)-4-carboxy-4-[[(4S)-4-carboxy-4-(19-carboxynonadecanoylamino)butanoyl]amino]butanoyl]-[Glu14,Arg17,Pro21,Pro27,Arg34]-h-amylin (peptide)
peptide: K([γGlu-γGlu-C20 diacid])CNTATCATQRLAEFLRHSSPNFGAIPSSTNVGRNTY-NH2
modifications: disulfide 2-7; N-terminus assumed
SMILES: CC[C@H](C)[C@H](NC(=O)[C@H](C)NC(=O)CNC(=O)[C@H](Cc1ccccc1)NC(=O)[C@H](CC(N)=O)NC(=O)[C@@H]1CCCN1C(=O)[C@H](CO)NC(=O)[C@H](CO)NC(=O)[C@H](Cc1c[nH]cn1)NC(=O)[C@H](CCCNC(=N)N)NC(=O)[C@H](CC(C)C)NC(=O)[C@H](Cc1ccccc1)NC(=O)[C@H](CCC(=O)O)NC(=O)[C@H](C)NC(=O)[C@H](CC(C)C)NC(=O)[C@H](CCCNC(=N)N)NC(=O)[C@H](CCC(N)=O)NC(=O)[C@@H](NC(=O)[C@H](C)NC(=O)[C@@H]1CSSC[C@H](NC(=O)[C@@H](N)CCCCNC(=O)CC[C@H](NC(=O)CC[C@H](NC(=O)CCCCCCCCCCCCCCCCCCC(=O)O)C(=O)O)C(=O)O)C(=O)N[C@@H](CC(N)=O)C(=O)N[C@@H]([C@@H](C)O)C(=O)N[C@@H](C)C(=O)N[C@@H]([C@@H](C)O)C(=O)N1)[C@@H](C)O)C(=O)N1CCC[C@H]1C(=O)N[C@@H](CO)C(=O)N[C@@H](CO)C(=O)N[C@H](C(=O)N[C@@H](CC(N)=O)C(=O)N[C@H](C(=O)NCC(=O)N[C@@H](CCCNC(=N)N)C(=O)N[C@@H](CC(N)=O)C(=O)N[C@H](C(=O)N[C@@H](Cc1ccc(O)cc1)C(N)=O)[C@@H](C)O)C(C)C)[C@@H](C)O
notes: also called compound 88
For the molecule B5, the “hCTR funct. EC50” value in assay [1] stood at 6.55 nM. In assay [2], the “Ratio hCT/hAmylin funct.” value came to 8.5 and the “hAmylin-R funct. EC50” value worked out at 0.773 nM. In addition, the IC50 in assay [3] was found to be 0.75 nM.
